Experimental data: the supplement of paper PMC9170038

System: MS2 coat protein
Test: apparent KD of MS2 coat protein; designed switch direction (-1 OFF switch, 1 ON switch): 1; higher = weaker reporter binding
Outline: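 The buffer was Tris-HCl pH 7.5 with KCl, MgCl2, BSA, DTT, tRNA and Tween-20. In it, SNAP-549-labelled MS2 coat protein was titrated in doubling steps from 0.7 or 1.5 nM to 3 µM over chip-bound RNA switches transcribed by stalled E. coli RNA polymerase on Illumina chips. Apparent KD is the per-design median over clusters of curve fits to normalised fluorescence.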

[1] = input ligand: microRNA oligo, concentration not stated
[2] = Eterna round: R95, input ligand: FMN 200 uM
[3] = Eterna round: R95, input ligand: microRNA oligo, concentration not stated
[4] = Eterna round: R95, input ligand: none

Sequence | apparent KD of MS2 coat protein (input ligand: FMN 200 uM) | apparent KD of MS2 coat protein [1] | apparent KD of MS2 coat protein (input ligand: none) | apparent KD of MS2 coat protein [2] | apparent KD of MS2 coat protein [3] | apparent KD of MS2 coat protein [4]
UGGUACAUGGGAGGAUAUGGGCAAGAGACAUGAGGAUCACCCAUGUUAUAAAAGCCGAGAGGCAUCUAGAAGGCCCAUGUACCU [JL SSNG1 3.90] (Eterna round: R96, puzzle: Same State NG 2) | 14.6 nM | 38.5 nM | 55.4 nM |  |  | 
UGGUACAUGGGAGGAUAUGGGUUGAUGACAUGAGGAUCACCCAUGUUAAAUAUGCCGAGAGGCAACUAGAAGGCCCAUGUACCU [JL SSNG1 3.99] (Eterna round: R96, puzzle: Same State NG 2) | 62.7 nM | 1320 nM | 1080 nM |  |  | 
UGUAAACAUGAGGAUCACCCAUGUAAUAUAAUGGGAGGAUAUCUGAAUUAAUUAAAUUAAGGAGAAGGCCUAAUGU [Mat - Same State 1 - Mod of Eli - D47] (puzzle: Same State 1) |  |  |  | 53.2 nM | 288 nM | 482 nM
UGUCCAGCCUGAGCUGGACAAAAGCAUGUACAUGAGGAUCACCCAUGUUCAUGUACAAGCUUUUUGCUCGUCUUAGA [salish99_208a_r3_064] (puzzle: Sensor for hsa-mir-208a) |  |  |  | 480 nM | 15.8 nM | 587 nM
UGUUAGUAGACAGGAUAUUGAAUGUUAAGUAUUAACAUGAGGAUCACCCAUGUAUUAGAUUGGUACAAGAAGGGUCAAGUUUGU [JR_SSNG2_Sub012] (Eterna round: R96, puzzle: Same State NG 2) |  | 242 nM |  |  |  | 
UGUUGUAUUACAGGAUAUCUAGUAUUGUUAUUUAGAGAAGGGUAUUCACAUGAGGAUCACCCAUGUAUAUACGAGGAAGUUGUG [JMF's solution 40] (Eterna round: R96, puzzle: Same State NG 1) |  | 28.8 nM |  |  |  | 
UGUUGUAUUACAGGAUAUCUAUGAUUUUUGUUUAGAGAAGGGUAUUCACAUGAGGAUCACCCAUGUAUAUACGAGGAAGUUGUG [JMF's solution 66] (Eterna round: R96, puzzle: Same State NG 1) |  | 42.4 nM |  |  |  | 
UGUUGUAUUACAGGAUAUCUAUUAAUUUUAUUUAGAGAAGGGUAUUCACAUGAGGAUCACCCAUGUAUAUACGAGGAAGUUGUG [JMF's solution 13] (Eterna round: R96, puzzle: Same State NG 1) |  | 38.7 nM |  |  |  | 
UGUUGUAUUACAGGAUAUCUAUUAGUUUCAUUUAGAGAAGGGUAUUCACAUGAGGAUCACCCAUGUAUAUACGAGGAAGUUGUG [JMF's solution 95] (Eterna round: R96, puzzle: Same State NG 1) | 55 nM | 44.4 nM | 59.6 nM |  |  | 
UGUUGUAUUACAGGAUAUCUAUUAUUUUUAUUUAGAGAAGGGUAUUCACAUGAGGAUCACCCAUGUAUAUACGAGGAAGUUGUG [JMF's solution 6] (Eterna round: R96, puzzle: Same State NG 1) |  | 42.7 nM |  |  |  | 
UGUUGUUACGCAGGAUAUGGUCACAUGAGGAUCACCCAUGUAUUGUCGAUGCUAUGUGGAUUUGAUCAGAAGGGCGGGUUAACA [SameState NG2 #100] (Eterna round: R96, puzzle: Same State NG 2) | 63.8 nM | 88.9 nM | 103 nM |  |  | 
UGUUUGUUGUGAGGAUAUACGUACACCCUACAUGAGGAUCACCCAUGUUGUUCCCUUGAUUGUUGGUAGAAGGCACUUGGUUAU [JR_SSNG2_Sub049] (Eterna round: R96, puzzle: Same State NG 2) | 216 nM | 122 nM | 118 nM |  |  | 
UUAAUAAAGUAAGGAUAUACAUGAGGAUCUCUCGUAGAAGGUACUAUACAUGAGGAUCACCCAUGUGCCGGUCCGUAGACUGGA [Mat - Same State NG 1 - JL mod - D7] (Eterna round: R96, puzzle: Same State NG 1) |  | 124 nM |  |  |  | 
UUAAUGAAGUAAGGAUAUACAUGAGGAUCACUCGUAGAAGGUACUAAACAUGAGGAUCACCCAUGUACCGGUCCGUAGACUGGA [JL SSNG1 1.01] (Eterna round: R96, puzzle: Same State NG 1) | 472 nM | 157 nM | 572 nM |  |  | 
UUAAUGAUGAAAGGAUAUACAUGAGGAAUUCUCGUAGAAGGUUCAUGACAUGAGGAUCACCCAUGUAUCGCUCCGUAGAGCGUA [JL SSNG1 1.13] (Eterna round: R96, puzzle: Same State NG 1) | 713 nM | 38.4 nM | 82.6 nM |  |  | 
UUAAUGAUGAUAGGAUAUACAUGAGGAAUCCUCGUAGAAGGAUCAUGACAUGAGGAUCACCCAUGUAACGCUCAGAAGAGCGUA [Mat - Same State NG 1 - JL mod - D42] (Eterna round: R96, puzzle: Same State NG 1) | 205 nM | 37 nM | 78.3 nM |  |  | 

Sequence | apparent KD of MS2 coat protein (input ligand: FMN 200 uM) | apparent KD of MS2 coat protein [1] | apparent KD of MS2 coat protein (input ligand: none) | apparent KD of MS2 coat protein [2] | apparent KD of MS2 coat protein [3] | apparent KD of MS2 coat protein [4]
UUAAUGAUGUAAGGAUAUACAUGAGGAUUUCUCGUAGAAGGUACAAGACAUGAGGAUCACCCAUGUAUCGCUCCGUAGAGCGUA [JL SSNG1 1.10] (Eterna round: R96, puzzle: Same State NG 1) | 652 nM | 101 nM | 287 nM |  |  | 
UUAAUUAAUUAAUUAUACAUGAGGAUCACCCAUGUAAGUGAUCAGGAUAUCAGCUCGAAUAGAGCUGAGAAGGGAUCCAUGUAA [SSNG3/14-A1] (Eterna round: R96, puzzle: Same State NG 3) |  | 72.7 nM |  |  |  | 
UUAAUUUACUGAGGAUAUCGUGUCGACUGAGUUGACAUGAGGAUCACCCAUGUGAGAAGUGGUAUCGAGAAGGCAGUUUUCUUA [JR_SSNG2_Sub025] (Eterna round: R96, puzzle: Same State NG 2) | 17.8 nM | 82 nM | 102 nM |  |  | 
UUAGAAUACGCAGGAUAUCGAUGAUUGAUAGUACGAGAAGGGCGAACAUGAGGAUCACCCAUGUAUAUUAAUUUGAGUUUGAAU [JR_SSNG1_Sub076] (Eterna round: R96, puzzle: Same State NG 1) | 69.4 nM | 120 nM | 214 nM |  |  | 
UUAGUCAUGUAAGGAUAUGCAGCCGAAACGGCUGCAGAAGGUACUAUAAUUACAUGAGGAUCACCCAUGUUAUAAAAUAAAUAU [Mat - Same State NG 1 - JL mod - D63] (Eterna round: R96, puzzle: Same State NG 1) | 22.9 nM | 25.6 nM | 48 nM |  |  | 
UUAUAACAUGAGGAUCACCCAUGUCAACAAAGUCGAGGAUAUGGGCAAUUAUUAUUAGAACCAGAAGGCGAAAAUU [Mat - Same State 1 - Mod of UCT - D29] (puzzle: Same State 1) |  |  |  | 52.1 nM | 227 nM | 587 nM
UUAUCUAUCCGAGGAUAUCCAUAUAAUUUACAUGAGGAUCACCCAUGUUAUUGGGAGUUUUUUUAGGAGAAGGCGGAUGUAGAU [JR_SSNG2_Sub052] (Eterna round: R96, puzzle: Same State NG 2) | 82.5 nM | 79.2 nM | 107 nM |  |  | 
UUCCCAUCGGGAGGAUAUGGAACCUUAUUGGUUCUAGAAGGUCCAACAUGAGGAUCACCCAUGUGGGAGUGGUCUAAUGACCAC [SS NG10LRO02] (Eterna round: R96, puzzle: Same State NG 1) | 117 nM | 141 nM | 159 nM |  |  | 
UUCGAGUAGCAAGGAUAUCUUAUUUAGAUUUUAAGAGAAGGUGCUUAUUAGAAACAUGAGGAUCACCCAUGUAUUACUUCUUAU [JR_SSNG1_Sub066] (Eterna round: R96, puzzle: Same State NG 1) | 14.1 nM | 13.8 nM | 20.1 nM |  |  | 
UUCUUACAUGAGGAUCACCCAUGUGUUGUCGUGGGAGGAUAUCCUGGUUCGGUGGCGUUGGGAGAAGGCCUAUGUU [× ×•×ª×• ×ž×“×™× ×” × ×—×ª-19] (puzzle: Same State 1) |  |  |  | 476 nM | 134 nM | 376 nM
UUGAAGAAUUAAGGAUAUCGAGUCGUCAAAUUAAACAUGAGGAUCACCCAUGUGGGUUGCGGUAUCGAGAAGGUAAAUUACUAG [JL JR Sub099 mod 4] (Eterna round: R96, puzzle: Same State NG 2) | 11.9 nM | 15.2 nM | 32.3 nM |  |  | 
UUGAUGAACUGAGGAUAUCGAGUCGUCUCAUUACACAUGAGGAUCACCCAUGUGGGUUGUGGUAUCGAGAAGGCAGAAUACUCA [JR_SSNG2_Sub033] (Eterna round: R96, puzzle: Same State NG 2) | 25.1 nM | 28.7 nM | 32.8 nM |  |  | 
UUGAUGAACUGAGGAUAUCGAGUCGUCUGAUUAUACAUGAGGAUCACCCAUGUGGGUUGUGGUAUCGAGAAGGCAGAUUACUUA [JR_SSNG2_Sub032] (Eterna round: R96, puzzle: Same State NG 2) | 82.8 nM | 117 nM | 260 nM |  |  | 
UUGAUGUACUGAGGAUAUCGUGUCGUCUGAUUUGACAUGAGGAUCACCCAUGUGGGAAGUGGUAUCGAGAAGGCAGUUUUCUUA [JR_SSNG2_Sub028] (Eterna round: R96, puzzle: Same State NG 2) | 151 nM | 351 nM | 745 nM |  |  | 
UUGCGCUGUCGAGAGGAUAUGCGGUGAUGGACAUGAGGAUCACCCAUGUUAGCGAUAGCAUUACGGUAGAAGGCUCUUCAGCUGC [salish99_ss2_r3_095] (puzzle: Same State 2) |  |  |  | 16.2 nM | 21.8 nM | 26.2 nM
